system: Escherichia coli TOP10; experiment: shrunken log2 fold change of peptide-encoding DNA abundance (4.5 h post-induction vs induction); higher = less antimicrobial activity (less host growth inhibition); conditions: time post-induction: 4.5 h; library: site-saturation at positions 5, 18, 19, 20
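Note: peptides expressed intracellularly from a pBAD plasmid library in pooled LB shake-flask culture, induced with 0.3% L-arabinose, DNA abundance read by NGS, three biological replicates, DESeq2 with apeglm shrinkage.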

Sequence	shrunken log2 fold change
RRIRVRPPRLPRPRPRPMCRPRP	-0.0485
RRIRHRPPRLPRPRPRPFFVPRP	-0.224
RRIRVRPPRLPRPRPRPAPEPRP	0.514
RRIRTRPPRLPRPRPRPIFTPRP	-0.0602
RRIRERPPRLPRPRPRPINLPRP	-0.338
RRIRLRPPRLPRPRPRPAWEPRP	0.185
RRIRMRPPRLPRPRPRPIMKPRP	-0.24
RRIRPRPPRLPRPRPRPIPMPRP	-0.0493
RRIRMRPPRLPRPRPRPLSTPRP	0.0164
RRIRERPPRLPRPRPRPDLNPRP	-0.322
RRIRMRPPRLPRPRPRPLAGPRP	0.468
RRIRDRPPRLPRPRPRPYKVPRP	-0.687
RRIRDRPPRLPRPRPRPWVSPRP	-0.0385
RRIRRRPPRLPRPRPRPYWGPRP	0.133
RRIRERPPRLPRPRPRPCYIPRP	-0.0464
RRIRERPPRLPRPRPRPRVFPRP	0.138
RRIRSRPPRLPRPRPRPAYAPRP	0.0867
RRIRYRPPRLPRPRPRPAQWPRP	-0.294
RRIRGRPPRLPRPRPRPMVPPRP	0.202
RRIRCRPPRLPRPRPRPRVGPRP	0.472

Sequence	shrunken log2 fold change
RRIRGRPPRLPRPRPRPANHPRP	0.0248
RRIRHRPPRLPRPRPRPHPIPRP	-0.107
RRIRSRPPRLPRPRPRPRDEPRP	0.242
RRIRTRPPRLPRPRPRPMMLPRP	0.00466
RRIRCRPPRLPRPRPRPSHDPRP	-0.235
RRIRVRPPRLPRPRPRPLDHPRP	-0.194
RRIRWRPPRLPRPRPRPRHDPRP	0.107
RRIRNRPPRLPRPRPRPTKCPRP	-0.16
RRIRRRPPRLPRPRPRPVYPPRP	-0.284
RRIRNRPPRLPRPRPRPGFPPRP	-0.00149
RRIRERPPRLPRPRPRPFVVPRP	-0.0043
RRIRFRPPRLPRPRPRPVCHPRP	-0.705
RRIRHRPPRLPRPRPRPSYAPRP	-0.21
RRIRRRPPRLPRPRPRPMNMPRP	0.922
RRIRGRPPRLPRPRPRPHLIPRP	0.205
RRIRQRPPRLPRPRPRPNCRPRP	0.13
RRIRVRPPRLPRPRPRPRADPRP	0.43
RRIRARPPRLPRPRPRPSKGPRP	-0.133
RRIRHRPPRLPRPRPRPDHTPRP	-0.307
RRIRHRPPRLPRPRPRPNYSPRP	-0.915

Sequence	shrunken log2 fold change
RRIRWRPPRLPRPRPRPYFRPRP	-0.787
RRIRYRPPRLPRPRPRPEVDPRP	-0.191
RRIRYRPPRLPRPRPRPWFQPRP	-0.00061
RRIRTRPPRLPRPRPRPGFEPRP	0.613
RRIRSRPPRLPRPRPRPDIMPRP	-0.661
RRIRARPPRLPRPRPRPENSPRP	0.172
RRIRDRPPRLPRPRPRPIYAPRP	-0.288
RRIRYRPPRLPRPRPRPPEFPRP	0.00678
RRIRLRPPRLPRPRPRPMTLPRP	-0.156
RRIRKRPPRLPRPRPRPAHTPRP	0.471
RRIRQRPPRLPRPRPRPPELPRP	0.109
RRIRLRPPRLPRPRPRPGLGPRP	0.342
RRIRVRPPRLPRPRPRPNNCPRP	-0.0726
RRIRWRPPRLPRPRPRPEQGPRP	-0.00277
RRIRHRPPRLPRPRPRPACGPRP	0.216
RRIRSRPPRLPRPRPRPETTPRP	0.461
RRIRNRPPRLPRPRPRPMFYPRP	-0.166
RRIRKRPPRLPRPRPRPVAYPRP	-0.109
RRIRYRPPRLPRPRPRPPYFPRP	-0.262
RRIRKRPPRLPRPRPRPRWYPRP	0.275
